# Assay: soluble on expression in E. coli; label from the status in PepcDB or PDB records
row,Sequence,soluble on expression in E. coli
1,MIKSYKIRGTSLTVNRSDSYPDACNWTADSFGMLFYDPEYDLSTESLSITLDAGNDWVPEGGLVYESLPVKVTYENPEMMDYGTDWFNQGYSALGWNGEEYAYLGTDRGIVNILLEEDEKILYPNEEYDLKEGYTLKVTDLASDKACLTLSRNKLPVYSSIISPGKSADLGTHTFLYKKELNGVEVPLFSVYVDSVIQGDELSAVNLKHLLHFSDSPLELNYGKEYGELTIVETYPKLRLENKHVVWSGSDINVTEDIWIGRFEKKTAGNLFVTFYPYMNKVENVRSILPSVSSWSIPAMSIEEYLIGVLEHHHHHH,not soluble
2,MTLIRWNPWQDLNTLQRQLNHLFEEDMLPSTLLERTLTRVPAAELHETAEVIYLKLELPGIDAKDVDLQVTDKAVYISGERKSETKTEDKGVFKSEFQYGKFQRVIPLPARIQNTNVTAEYKDGILNLTLPKAEVEKNKVVKINIESAAGLEHHHHHH,soluble
3,MGSDKIHHHHHHMTVIAVAGKGGTGKTLVSALLINFISEHTTSVLAVDADPDSNLPEALGVEKQVRKTLGEIRELFQVSRDEMGSMNKEQWLEGKIYAEAICECPRYDLLVMGRPEGEGCYCFANSLLRGVLKRLMRHYEYIIIDTEAGLEHFSRKTIDSADYIIIVTDMSRKGLATAKRIKELASELKLNFKKIFLIANRIASEDAEKTIREFAKEEGLELLAVLPYDSSVAEIDLRGEPVSKIDKNSEVYRKMKDVANLMLNLSAKAR,not soluble
4,SDLCQLFVEQLFGFQDPASLHVLINEIPCARKNLISLRRFSLLIAEPQWFTGSIYDNLVLNHRNVPNKIIIEQLKNVGLADKIIQLPEGLRTILYEWQDVFTLVELTKLMLVRALLLQPELIVIDRAFDILNHQEVNEMMELVLSLKNTLLAIVSQRSDFNYLNNRLVISS,not soluble
5,MGSDKIHHHHHHMAFTHTVGQHRHVFADLRTLLAKASPARSGDYLAGIAAASEEERMAARMALAAVPLTQFLSEALVPYEDDEVTRLIVDSHDAVAFAEIASLTVGDFRNWLLLHETDSTTLATVARGITPEMAAAVSKLMRNQDLIAVARKCHVVTRFRSTVGLPGRLSVRLQPNHPTDDPKGIAASIIDGLMYGCGDATIGVNPVSDSLGAIVSLLRMIDDLRCRYDIPTQSCVLTHVTHTLRAMEQGAPVDLVFQSVAGSERANAAFGISLSLLAEAHDAAQALARGTVGDNVMYFETGQGSALSANAHHGVDQQTMEARAYAVARRFSPLLVNTVVGFIGPEYLYDGKQIIRAGLEDHFCGKLLGVPMGCDVCYTNHAEADQDDMDTLLTLFGVAGINFIMGVPGADDIMLNYQSTSFHDALYLREVLGLRPAPEFEAWLQRMGIADGSGRLLEPAERQPLLELAHTL,not soluble
6,MGSDKIHHHHHHMHEDKNDIFESIDTEDFDNKTEEECLELVRKNGLNLIYIKNQTEEICLEAVRQNCNAIKCVQNQTEKICIEAVKQDWRMLEFVEEPTEEICMLAINQDGTALKYIENQTEELCLRAVEKNGAALEYVKEQTEEICIEAVRNSEFGLARVKNQTEKICMEAVKHCSYNLKWVENQTEEICMEAVRQNGLDLKFVKNQTETICLRAVRQNGMALEFVKEQTVGICLKAVRQYGMALKFVKEQTEEICTEAIKQDKRALSFVKGDKEKYKALYDNNEPFAKRYVRNVIEKENRALIKKGEENAKIKIAGKLYDRGMSFEDISDIVEIEISKLKVSLGVF,not soluble
7,MKKCRICGKKAIIYMPHHRLALCREHFVEWFEKYTERTIKEFKMFTKKDKVLVAISGGKDSLALWHVLRKLGYEADGLYINLGIGEYSEKSKEKVLKFAEKINGKAIIVDLKEELAGIPELVKITSREACSVCGLVKRYNFNKVAKEHGYNVIATGHNLDDEASALLANVLNWNEKYLGRKYPVLEEEAGFVRKVKPFCKFTEKETALYALLNGIDFIEEECPFSEDATSVFYKKILNEIEERSPGTKLRFYLDYLRKIYPKFRKEEEKKELQPCKVCGEPTVGEICPVCRLREKVEASSG,soluble
8,MGSDKIHHHHHHMTVVRQTAAEQATATGRRRASFHTLTVAEVRRLTDDAIEVTFGVPAELAGQYDYLPGQYVALRTTMPDENGQPHEVRRSYSICAEPRSFADGSSEIRVAIKKDLGGLFSTWANAELKPGDQLDVMSPMGAFVSKHGRDGKAVEQNVMNSMNHPEDLVGEPGSFVAIAAGSGITPVIAIARTLLAANPETRFDLIYANKAAMDVMFLEELADLKDKYPSRLALHHVLSREQRIAPLLSGRIDAEKLQALLGTAIHADDVDEWFLCGPFELVQLCRDTLAARGVQPEHVRFELFTSGKPDRPEGNIGRPVIADESKDTYKITFKLDGLEGKVESPTHARESLLNAALRVRPDVPFACAGGVCGTCRAKVVTGAVTMDENYALEQDELDKGYVLTCQSHPTTPEVTVDFDV,not soluble
9,MPGIDKLPIEETLEDSPQTRSLLGVFEEDATAISNYMNQLYQAMHRIYDAQNELSAATHLTSKLLKEYEKQRFPLGGDDEVMSSTLQQFSKVIDELSSCHAVLSTQLADAMMFPITQFKERDLKEILTLKEVFQIASNDHDAAINRYSRLSKKRENDKVKYEVTEDVYTSRKKQHQTMMHYFCALNTLQYKKKIALLEPLLGYMQAQISFFKMGSENLNEQLEEFLANIGTSVQNVRREMDSDIETMQQTIEDLEVASDPLYVPDPDPTKFPVNRNLTRKAGYLNARNKTGLVSSTWDRQFYFTQGGNLMSQARGDVAGGLAMDIDNCSVMAVDCEDRRYCFQITSFDGKKSSILQAESKKDHEEWICTINNISKQIYLSENPEETAARVNQSALEAVTPSPSFQQRHESLRPAAGQSRPPTARTSSSGSLGSESTNLAALSLDSLVAPDTPIQFDIISPVCEDQPGQAKAFGQGGRRTNPFGESGGSTKSETEDSILHQLFIVRFLGSMEVKSDDHPDVVYETMRQILAARAIHNIFRMTESHLLVTCDCLKLIDPQTQVTRLTFPLPCVVLYATHQENKRLFGFVLRTSSGRSESNLSSVCYIFESNNEGEKICDSVGLAKQIALHAELDRRASEKQKEIERVKEKQQKELNKQKQIEKDLEEQSRLIAASSRPNQASSEGQFVVLSSSQSEESDLGEGGKKRESEA,soluble
10,MARPIGIYEKATPKQFTWRERLQFAKDLGFDFVEMSVDESDARLARLEWTKEERLDLVKAIYETGIRIPTICFSGHRRYPLGSNDPAIEAKSLKLMKQCIELAQDLGVRTIQLAGYDVYYEKKSPETRARFIKNLRQSCDWAEEAQVMLSIEIMDDPFINSIEKYLAVEKEIDSPYLFVYPDAGNVSAWHNDLWSEFYNGHKSIAALHLKDTYAVTETSKGQFRDVPFGQGCVDWQELFAVLKKTNYNGPFLIEMWSENCDTVEETKAAIKEAQDFLYPLIEKAGLT,not soluble
11,MGSDKIHHHHHHMREENYEEAAKAFNAAIEANPSDPIGFVNFGNLLGMVGELDKALIFFDKAIGLQEDCAPAYYGAGTIYYKQEKFEDGAKMFKQAIAHKLNETDVYFMLGMCYYQLGALPHAQANFQRALELDSNDVEARFQLGLCLAQLEQVDEAIKHLQLVVEHVPNHADAHFNLGVAYAYKDRLEEALAHFERAIHIQPEHILAHNGKKTVEEVLNKGANEA,not soluble
12,MGSDKIHHHHHHMGQSSEDAAMTLQPFDGFGLGLRPPHYRAFLDSERPLVDFVEVISENFMVGGGRPLHVIDAVRERYPVALHGVSMSVGSADGVKLDYLRRLKGLADRVDPMWVSDHLCWTGVEGFNSHDLLPVPYTEEAMAVVCANIALAQDVLERPLLLENPSSYVTFANDAMAEHQFLAEMCARTGCYLLLDINNIYVSASNHGFDPYEYLAAVPVDRVLQIHLAGHSQGRELLIDTHDQPVPDSVWALYEAAAGRFGPVAAMIERDDDIPPLDDLLAELDVARARWAAGRRGSLAA,not soluble
13,MIRSFADRDTELVWLREGAKRVDPRIHKVANRKLHLLDAATTLDALRVTPGNRLETLEGDRVGQYSIRVNDQWRICFRWNDSGPENVEIVDYH,not soluble
14,MSPQVSIVIPNHDYGRYLDACLDSLAAQTLPVQRMEVIVVDDASGDDSLERAARWQACHPWKAFTVVPLSRVGRPGPVRNAGLRRAQAALMLCLDPDDTLAPEALVRMVEALDNAPHAHVASSDYFEHRGEHIRRVNIPDDDSNVLPTQNPCHSASLFRREVWEATGGYTAATAYEDWDFWVRAASCGMRRVRVPYPLVHYRLRDDGFWVGASADDAKAKAAIVRRTPAFFAPEVRGWAVAILRGETWMPAFPRGVIPTAEALRAFRDDCMARLGPQADSLFTALPGWPRKTGESSRSGETGQSGLEHHHHHH,not soluble
15,MKKQPGQQPLRSLSLTSAAKSLEEVEPEDDSKKGEPHAKAAGFGRGGGGGKRLPAARSTPMVIPNQVAAMPVQMTGFVQLATNNILSAIAHTNSLMVVQCIEPLEIFTGFETPNRYVVHDMYCRPLLYCMERSNVFARQYHGNNRKLSASTLDSCRRCSPMRTLTLFTFQWTCRQS,soluble
16,MYRQALASGEKIFAVAPMIDWTDTRCRFLHRQLSKRALLFTEMIVADAIIHGQREKLLGYHPQEHPVALQLGGSNPAKLAEAVRIAGDYGYDEINLNVGCPSDRVQSGTFGACLMREPEVVAQCISAMKAVAAVPVTVKCRIGVDDQEPETVLPDFLARVVAAGADAVWVHARKAWLQGLSPKENREVPPLDYDLVYRMKRDNPDVFIGINGGIADLDQAGEHLKYVDGVMLGRAAYHNTSILADVDHRIHGEEALQYDWMALRDTMMAYAADYIATGGRLNHVTRHMVGLFQGMPGARRFRQILSSDATRPGAGPEVIEAAFAAIDFNPMKELAG,not soluble
17,MDDILSAALAESGLDFLCQQSSPTPSTSGSIHDDAGQSFSNNTHTPSVSQFFDETSNDSHSSSAYYTPMATPFVSTEDGGVPTSFFGMDEEDGGCTIMTTAGTSGSNNIDGIEDAGGGMYYPHVKVIPRKHTAPTVNQSEPSTPTVTIVPKKEDPLFETNTADSPTPSGDTSTTASYEGNDGLEDQETTSDRQNPMFVQTARSTDFATKKNQMAEQAHFLRFSVFWQKSGRLDTPSTSATVSPHITSSLTQRSHTSSPASSASEGTVVPPRKKGLPITTGSIVKRTVQTKDGLQTQYLKAFVNENGEKIYKLLSPVAASAVARGTLPPGMGRGGSTIGRGGTMVNKNGERLMVVKNHVGPNGQMLVKRMVSPAGTRIVANGGQGRGQPIYRGT,not soluble
18,MFRNVAELVELAESQAIPISEVMIRQEIEVTERSREAIIEQMENHLDVMEKAVRRGITEQVRSVSGLTGGDAVLLQDYLKKGNYLSSETVLDAVSKAVATNEVNAAMGTICATPTAGASGVVPGVLFGMEKRLSPTKEQKVRFLFTSGAFGFVVANNASISGAAGGCQAEVGSATGMAAAALVELAGGTPSQSAEAMAIALKNMLGLVCDPVAGLVEVPCVKRNAIGASIAITAADMALAGIQSRIPTDEVIDAMYKIGQAMPVAYKETAQGGLAATPKGRELEAKIFGVALDKK,not soluble
19,SNAMKLYIYDHCPFCVKARMIFGLKNIPVELNVLQNDDEATPTRMIGQKMVPILQKDDSRYLPESMDIVHYVDNLDGKPLLTGKRNPAIEEWLRKVNGYVNQLLLPRFAKSAFDEFSTPAARQYFIRKKEASSGSFDNHLAHSAGLIKKIGDDLRLLDKLIVQPNAVNGELSEDDIHLFPLLRNLTLVAGIHWPTKVADYRDNMAKQTQINLLSSMAI,soluble
20,MSKKIRTEAVDYLFDAILSLKDKEECYTFFEDICTINELLSLSQRFEVAKMLREQKTYLEIAEKTGASTATISRVNRSLNYGNDGYDMVFERMEK,not soluble
21,MVFEGHLVGTGLKVGVVVGRFNEFITSKLLGGALDGLKRHGVEENDIDVAWVPGAFEIPLIAKKMANSGKYDAVITLGTVIRGATTHYDYVCNEVAKGVASLSLQTDIPVIFGVLTTETIEQAIERAGTKAGNKGYESAVAAIEMAHLSKHWA,not soluble
